In this series the target is Human type I collagen, P02452.
Sequence of Human type I collagen, P02452 (P02452 162-1218, chain 1 of 2): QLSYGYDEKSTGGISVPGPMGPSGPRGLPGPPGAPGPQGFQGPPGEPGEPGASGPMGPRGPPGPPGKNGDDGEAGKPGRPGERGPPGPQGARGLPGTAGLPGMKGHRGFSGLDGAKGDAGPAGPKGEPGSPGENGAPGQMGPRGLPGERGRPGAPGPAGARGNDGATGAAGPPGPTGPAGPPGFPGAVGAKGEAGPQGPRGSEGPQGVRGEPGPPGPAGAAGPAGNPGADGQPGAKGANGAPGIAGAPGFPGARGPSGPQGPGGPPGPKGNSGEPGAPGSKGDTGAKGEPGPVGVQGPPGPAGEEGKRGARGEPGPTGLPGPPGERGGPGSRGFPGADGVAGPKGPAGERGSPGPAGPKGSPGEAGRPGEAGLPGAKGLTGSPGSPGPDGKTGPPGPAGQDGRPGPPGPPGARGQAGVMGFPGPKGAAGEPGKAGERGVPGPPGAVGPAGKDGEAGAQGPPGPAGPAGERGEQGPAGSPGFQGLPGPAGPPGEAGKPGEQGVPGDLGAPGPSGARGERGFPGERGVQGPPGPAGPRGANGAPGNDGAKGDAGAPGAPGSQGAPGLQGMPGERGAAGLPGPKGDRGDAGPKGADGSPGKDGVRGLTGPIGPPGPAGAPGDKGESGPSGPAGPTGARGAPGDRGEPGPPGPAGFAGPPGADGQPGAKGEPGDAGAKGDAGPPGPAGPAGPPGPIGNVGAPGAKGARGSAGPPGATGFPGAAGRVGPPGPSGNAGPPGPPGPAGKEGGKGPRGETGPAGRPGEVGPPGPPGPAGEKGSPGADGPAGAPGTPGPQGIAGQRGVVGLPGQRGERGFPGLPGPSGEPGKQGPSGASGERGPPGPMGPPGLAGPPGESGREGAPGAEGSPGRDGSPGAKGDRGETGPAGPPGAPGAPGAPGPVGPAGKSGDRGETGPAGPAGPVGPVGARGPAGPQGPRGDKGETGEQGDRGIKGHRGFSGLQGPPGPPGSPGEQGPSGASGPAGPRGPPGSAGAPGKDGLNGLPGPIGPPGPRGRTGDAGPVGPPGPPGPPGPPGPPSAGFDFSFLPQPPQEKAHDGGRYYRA
Sequence of Human type I collagen, P02452 (chain, as listed by the source, chain 2 of 2): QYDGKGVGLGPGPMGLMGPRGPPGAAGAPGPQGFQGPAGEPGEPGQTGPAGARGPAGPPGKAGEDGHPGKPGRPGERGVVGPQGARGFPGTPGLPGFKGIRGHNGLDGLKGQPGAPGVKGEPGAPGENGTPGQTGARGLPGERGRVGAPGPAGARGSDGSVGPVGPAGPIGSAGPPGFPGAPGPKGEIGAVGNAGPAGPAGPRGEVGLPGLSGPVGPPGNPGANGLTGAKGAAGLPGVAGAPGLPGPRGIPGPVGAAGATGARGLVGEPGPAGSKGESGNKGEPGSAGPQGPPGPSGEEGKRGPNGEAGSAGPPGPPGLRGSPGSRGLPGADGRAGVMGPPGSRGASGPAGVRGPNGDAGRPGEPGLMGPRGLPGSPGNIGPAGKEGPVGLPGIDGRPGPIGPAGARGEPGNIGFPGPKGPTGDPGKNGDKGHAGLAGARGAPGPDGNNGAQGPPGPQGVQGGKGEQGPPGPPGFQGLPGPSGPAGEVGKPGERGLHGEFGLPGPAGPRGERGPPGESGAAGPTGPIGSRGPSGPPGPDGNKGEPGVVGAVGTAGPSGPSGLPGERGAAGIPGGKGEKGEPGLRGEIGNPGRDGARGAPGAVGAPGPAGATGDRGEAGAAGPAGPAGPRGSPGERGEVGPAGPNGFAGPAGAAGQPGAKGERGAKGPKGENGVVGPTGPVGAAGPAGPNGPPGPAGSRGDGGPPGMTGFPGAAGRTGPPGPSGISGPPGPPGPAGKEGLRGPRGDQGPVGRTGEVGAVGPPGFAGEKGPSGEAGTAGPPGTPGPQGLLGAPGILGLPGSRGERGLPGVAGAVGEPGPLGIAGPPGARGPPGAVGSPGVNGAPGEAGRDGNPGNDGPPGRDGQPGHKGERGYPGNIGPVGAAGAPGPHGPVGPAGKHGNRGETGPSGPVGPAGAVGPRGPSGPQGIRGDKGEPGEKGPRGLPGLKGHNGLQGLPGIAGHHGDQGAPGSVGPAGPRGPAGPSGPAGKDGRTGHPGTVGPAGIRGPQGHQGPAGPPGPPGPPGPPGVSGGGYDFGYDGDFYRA

B1: MMP1 (matrix metalloproteinase 1) (protein)
chain: FVLTEGNPRWEQTHLTYRIENYTPDLPRADVDHAIEKAFQLWSNVTPLTFTKVSEGQADIMISFVRGDHRDNSPFDGPGGNLAHAFQPGPGIGGDAHFDEDERWTNNFREYNLHRVAAHELGHSLGLSHSTDIGALMYPSYTFSGDVQLAQDDIDGIQAIYGRSQNPVQPIGPQTPKACDSKLTFDAITTIRGEVMFFKDRFYMRTNPFYPEVELNFISVFWPQLPNGLEAAYEFADRDEVRFFKGNKYWAVQGQNVLHGYPKDIYSSFGFPRTVKHIDAALSEENTGKTYFFVANKYWRYDEYKRSMDPGYPKMIAHDFPGIGHKVDAVFMKDGFFYFFHGTRQYKFDPKTKRILTLQKANSWFNCRKN
With B1, the “collagen fiber, fibril and network structure on a substrate, by atomic force microscopy” value is “MMP-treated samples, however, showed a substantial amount of disorganized collagen and little remaining fiber/fibril formation”; the “collagen fiber, fibril and network structure on a substrate, by scanning electron microscopy” value was “MMP treatment of the substrate resulted in a readily observable amount of disruption of the collagen fibers, fibrils and network”.

For the origin of these results see patent publication US20240016900.
